Test results from publication PMC8897147 (Acta Pharmaceutica Sinica. B, 2021).

T1: glucagon-like peptide-2 receptor-Rluc8 (UniProt O95838 1-553)
T1 sequence: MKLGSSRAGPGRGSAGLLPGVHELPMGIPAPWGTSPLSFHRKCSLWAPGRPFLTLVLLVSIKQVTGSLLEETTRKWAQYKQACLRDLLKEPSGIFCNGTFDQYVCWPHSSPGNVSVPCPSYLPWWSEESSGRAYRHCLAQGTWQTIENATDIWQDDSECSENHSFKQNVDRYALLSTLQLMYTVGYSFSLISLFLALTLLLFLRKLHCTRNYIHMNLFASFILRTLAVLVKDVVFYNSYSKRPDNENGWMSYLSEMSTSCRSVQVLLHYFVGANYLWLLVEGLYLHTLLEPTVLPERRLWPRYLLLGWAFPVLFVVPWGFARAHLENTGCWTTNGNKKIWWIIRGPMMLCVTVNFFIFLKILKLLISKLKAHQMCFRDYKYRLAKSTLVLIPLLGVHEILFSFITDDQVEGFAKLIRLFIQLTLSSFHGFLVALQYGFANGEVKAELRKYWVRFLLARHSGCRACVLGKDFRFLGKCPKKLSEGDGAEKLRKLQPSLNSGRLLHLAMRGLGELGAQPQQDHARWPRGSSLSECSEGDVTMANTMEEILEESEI

T2: growth hormone-releasing hormone receptor-Rluc8 (UniProt Q02643 23-423)
T2 sequence: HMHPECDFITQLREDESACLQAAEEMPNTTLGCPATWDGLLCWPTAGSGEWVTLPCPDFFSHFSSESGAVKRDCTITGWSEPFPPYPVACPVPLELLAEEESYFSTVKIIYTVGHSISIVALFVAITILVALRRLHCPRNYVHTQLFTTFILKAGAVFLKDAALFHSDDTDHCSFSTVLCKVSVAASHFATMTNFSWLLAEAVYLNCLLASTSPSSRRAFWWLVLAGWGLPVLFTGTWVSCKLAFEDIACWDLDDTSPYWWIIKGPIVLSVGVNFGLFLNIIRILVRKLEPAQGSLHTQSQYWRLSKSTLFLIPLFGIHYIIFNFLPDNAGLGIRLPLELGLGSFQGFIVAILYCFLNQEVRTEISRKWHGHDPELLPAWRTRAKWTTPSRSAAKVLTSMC

T3: gastric inhibitory polypeptide receptor-Rluc8 (UniProt P48546 22-466)
T3 sequence: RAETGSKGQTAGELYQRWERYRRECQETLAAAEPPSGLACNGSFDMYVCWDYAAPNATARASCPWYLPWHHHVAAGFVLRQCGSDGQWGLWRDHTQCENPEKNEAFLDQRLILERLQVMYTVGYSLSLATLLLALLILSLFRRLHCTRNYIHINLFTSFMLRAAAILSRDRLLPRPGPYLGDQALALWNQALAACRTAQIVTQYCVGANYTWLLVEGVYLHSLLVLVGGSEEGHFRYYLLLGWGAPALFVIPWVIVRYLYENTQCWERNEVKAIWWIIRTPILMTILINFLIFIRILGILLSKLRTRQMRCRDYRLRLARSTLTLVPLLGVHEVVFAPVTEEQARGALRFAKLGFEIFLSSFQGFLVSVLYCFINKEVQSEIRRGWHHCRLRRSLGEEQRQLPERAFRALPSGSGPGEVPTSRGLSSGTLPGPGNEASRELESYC


Experiments:
Assay in all cases: FRET or BRET
[1] = molecular target: calcitonin-like receptor-Rluc8 (human, UniProt Q16602 23-461)
[2] = molecular target: glucagon-like peptide-1 receptor-Rluc8 (UniProt P43220 24-463)
[3] = molecular target: T1, glucagon-like peptide-2 receptor-Rluc8
[4] = molecular target: T2, growth hormone-releasing hormone …
secretin receptor-Rluc8 = secretin receptor-Rluc8 (UniProt P47872 23-440)
glucagon receptor-Rluc8 = glucagon receptor-Rluc8 (UniProt P47871 26-477)
[5] = molecular target: T3, gastric inhibitory polypeptide …

Sequence of calcitonin-like receptor-Rluc8 (Q16602 23-461): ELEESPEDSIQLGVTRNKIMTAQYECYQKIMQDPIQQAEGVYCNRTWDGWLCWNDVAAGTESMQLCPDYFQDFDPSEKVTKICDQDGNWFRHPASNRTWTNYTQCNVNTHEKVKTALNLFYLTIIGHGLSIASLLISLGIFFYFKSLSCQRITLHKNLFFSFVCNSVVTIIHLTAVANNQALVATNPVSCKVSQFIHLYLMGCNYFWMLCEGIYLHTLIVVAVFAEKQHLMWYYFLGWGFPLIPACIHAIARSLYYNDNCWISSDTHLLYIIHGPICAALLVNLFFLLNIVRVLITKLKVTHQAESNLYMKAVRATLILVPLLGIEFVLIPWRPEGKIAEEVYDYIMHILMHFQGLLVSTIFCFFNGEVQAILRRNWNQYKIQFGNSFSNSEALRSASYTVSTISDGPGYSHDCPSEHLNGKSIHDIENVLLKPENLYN
Sequence of glucagon receptor-Rluc8 (P47871 26-477): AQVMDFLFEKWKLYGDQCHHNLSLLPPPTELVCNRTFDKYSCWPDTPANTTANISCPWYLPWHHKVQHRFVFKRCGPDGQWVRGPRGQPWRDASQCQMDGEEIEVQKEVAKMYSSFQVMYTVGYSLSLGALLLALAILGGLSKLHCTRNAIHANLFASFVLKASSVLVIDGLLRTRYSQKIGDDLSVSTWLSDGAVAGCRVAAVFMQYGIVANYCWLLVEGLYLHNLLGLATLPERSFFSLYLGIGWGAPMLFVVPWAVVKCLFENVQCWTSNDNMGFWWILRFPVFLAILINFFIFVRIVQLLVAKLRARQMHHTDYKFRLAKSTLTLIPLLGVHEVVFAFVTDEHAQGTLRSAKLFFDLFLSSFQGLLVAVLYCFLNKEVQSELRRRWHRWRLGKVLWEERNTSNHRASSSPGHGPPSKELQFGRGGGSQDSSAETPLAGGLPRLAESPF
Sequence of secretin receptor-Rluc8 (P47872 23-440): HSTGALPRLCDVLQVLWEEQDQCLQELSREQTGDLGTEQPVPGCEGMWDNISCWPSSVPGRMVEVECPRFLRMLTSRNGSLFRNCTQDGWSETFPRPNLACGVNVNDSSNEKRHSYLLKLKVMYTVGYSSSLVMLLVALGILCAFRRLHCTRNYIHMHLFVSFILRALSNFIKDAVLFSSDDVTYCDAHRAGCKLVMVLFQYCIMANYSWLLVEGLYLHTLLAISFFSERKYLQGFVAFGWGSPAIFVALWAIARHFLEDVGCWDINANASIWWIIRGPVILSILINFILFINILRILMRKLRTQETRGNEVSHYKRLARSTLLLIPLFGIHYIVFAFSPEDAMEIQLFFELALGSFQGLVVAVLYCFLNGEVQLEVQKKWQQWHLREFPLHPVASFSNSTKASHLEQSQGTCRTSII

| BRET50 (Kd) [1] | BRET50 (Kd) [2] | BRET50 (Kd) [3] | BRET50 (Kd) [4] | BRET50 (Kd) (secretin receptor-Rluc8) | BRET50 (Kd) (glucagon receptor-Rluc8) | BRET50 (Kd) [5] | Binder |
| --- | --- | --- | --- | --- | --- | --- | --- |
| 0.087 intensity ratio of RAMP:receptor | 1 intensity ratio of RAMP:receptor | 1.66 intensity ratio of RAMP:receptor | 2.09 intensity ratio of RAMP:receptor | 1.63 intensity ratio of RAMP:receptor | 2.34 intensity ratio of RAMP:receptor | 0.352 intensity ratio of RAMP:receptor | RAMP3-Ypet (receptor activity-modulating protein 3) (natural protein) RAGGCNETGMLERLPLCGKAFADMMGKVDVWKWCNLSEFIVYYESFTNCTEMEANVVGCYWPNPLAQGFITGIHRQFFSNCTVDRVHLEDPPDEVLIPLIVIPVVLTVAMAGLVVWRSKRTDTLL |
| 0.077 intensity ratio of RAMP:receptor |  |  |  |  | 1.55 intensity ratio of RAMP:receptor | 4.6 intensity ratio of RAMP:receptor | RAMP1-Ypet (receptor activity-modulating protein 1) (natural protein) CQEANYGALLRELCLTQFQVDMEAVGETLWCDWGRTIRSYRELADCTWHMAEKLGCFWPNAEVDRFFLAVHGRYFRSCPISGRAVRDPPGSILYPFIVVPITVTLLVTALVVWQSKRTEGIV |
| 0.114 intensity ratio of RAMP:receptor |  | 7.45 intensity ratio of RAMP:receptor | 0.893 intensity ratio of RAMP:receptor |  | 1.65 intensity ratio of RAMP:receptor | 2.75 intensity ratio of RAMP:receptor | RAMP2-Ypet (receptor activity-modulating protein 2) (natural protein) QPLPTTGTPGSEGGTVKNYETAVQFCWNHYKDQMDPIEKDWCDWAMISRPYSTLRDCLEHFAELFDLGFPNPLAERIIFETHQIHFANCSLVQPTFSDPPEDVLLAMIIAPICLIPFLITLVVWRSKDSEAQA |
